Where “and” joins values, the source holds several entries; their conditions need not be identical. Equal values may be shown once.
Experiments:
H-2K = target: T1, H-2K (Mus musculus, UniProt P01902); assay: Direct peptide binding assay: 125I-labeled conventional Kd from BALB/c spleen
T1 construct: K^d molecules isolated from the spleen of BALB/c mice were then purified and iodinated; from tissue; host or cells: spleen of BALB/c mice
T1 sequence (P01902 22-368): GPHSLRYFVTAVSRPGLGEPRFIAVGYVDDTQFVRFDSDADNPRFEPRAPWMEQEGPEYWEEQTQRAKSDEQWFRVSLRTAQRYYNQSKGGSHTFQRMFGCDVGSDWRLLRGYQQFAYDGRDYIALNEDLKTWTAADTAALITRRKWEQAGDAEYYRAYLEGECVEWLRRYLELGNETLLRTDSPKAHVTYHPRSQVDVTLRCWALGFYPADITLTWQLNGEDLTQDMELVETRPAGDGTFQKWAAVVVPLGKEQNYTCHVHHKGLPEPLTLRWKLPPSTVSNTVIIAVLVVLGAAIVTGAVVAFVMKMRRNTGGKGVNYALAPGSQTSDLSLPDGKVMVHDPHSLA
T1 sequence (P01887 21-119 partner): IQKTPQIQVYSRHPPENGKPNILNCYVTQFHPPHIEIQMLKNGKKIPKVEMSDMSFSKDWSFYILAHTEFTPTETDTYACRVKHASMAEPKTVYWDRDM
Experimental: Direct Peptide Binding Assay. Wells of microtiter plates are pretreated with 100 μl 2.5% glutaraldehyde in distilled water for 2 h at 20° C., washed with distilled water, and coated for 16 h at 4° C. with 100 μl of peptide diluted at 5 μg/ml either in carbonate-bicarbonate buffer, pH 9.6, or in PBS, pH 7.4 or pH 5.0. Remaining free sites are blocked by incubation for 2 h at 20° C. with BSA diluted 1% in PBS containing 0.05% Tween 20 (Tw) and 0.02% sodium azoture. After washing, purified ^125 I-HLA molecules (100 μl containing 1.5×10^5 cpm, 10^-9 M) diluted in PBS containing 1% BSA, 0.05% Tw, 0.02% sodium azoture, 1 mM PMSF, and 10 μg/ml trypsin inhibitor are added and incubated for 20 h at 20° C. After extensive washing, the radioactivity of each well is counted.
Peptides used in this study are described in Choppin et al. (Choppin, J., Martinon, F., Gomard, E., Bahraoui, E., Connan, F., Bouillot, F., and Levy, J. -P, J. Exp. Med., 1990. 172:889 and references therein), except for HLA-Cw3 and HLA-A24 described in Maryanski, J. Ll, Pala, P., Cerottini, J. -C, and Corradin, G., J. Exp. Med. 1988. 167:1391. Binding assays were performed as described in Choppin, J., Martinon, F., Gomard, E., Bahraoui, E., Connan, F., Bouillot, F., and Levy, J. -P, J. Exp. Med., 1990. 172:889. […]

SC-K^d -15 [1] = target: T2, SC-K^d -15 (Mus musculus, UniProt P01887+P01902); assay: Direct peptide binding assay: 35S-labeled SC-Kd-15 on plastic-coated peptides; settings: for ^35 S-labeled SC-Kd bound to coated peptide: duplicates; for binding of peptide to SC-K^d -15 (in words): direct assay
T2 construct: connecting residue 276 of K^d heavy chain to the first residue of β2 -microglobulin; mature mouse beta2-microglobulin, fused after the spacer (same polypeptide); expressed in transfected cells; host or cells: monkey COS-1 cells, transient
T2 sequence (P01902+P01887 with tags, fused parts or gaps): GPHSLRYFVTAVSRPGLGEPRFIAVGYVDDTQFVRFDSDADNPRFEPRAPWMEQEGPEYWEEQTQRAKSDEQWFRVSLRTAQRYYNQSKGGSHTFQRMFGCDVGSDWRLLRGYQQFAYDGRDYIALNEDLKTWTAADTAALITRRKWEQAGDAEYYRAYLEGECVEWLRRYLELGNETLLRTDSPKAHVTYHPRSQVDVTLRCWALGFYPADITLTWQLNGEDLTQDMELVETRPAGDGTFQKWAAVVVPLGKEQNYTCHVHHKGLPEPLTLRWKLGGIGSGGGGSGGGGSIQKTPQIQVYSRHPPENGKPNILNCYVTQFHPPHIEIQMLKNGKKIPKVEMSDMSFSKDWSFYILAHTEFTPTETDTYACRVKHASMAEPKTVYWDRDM
Experimental: (§1) Direct Peptide Binding Assay. Wells of microtiter plates are pretreated with 100 μl 2.5% glutaraldehyde in distilled water for 2 h at 20° C., washed with distilled water, […] buffer, pH 9.6, or in PBS, pH 7.4 or pH 5.0. Remaining free sites are blocked by incubation for 2 h at 20° C. with BSA diluted 1% in PBS containing 0.05% Tween 20 (Tw) and 0.02% sodium azoture. […] After extensive washing, the radioactivity of each well is counted.
COS-1 cells (usually 10^7 cells) were transfected with pSC-K^d -15 DNA, labeled and lysed as above. […] After the final wash in PBS, SC-K^d -15 was eluted from the matrix with an equal volume of 3 M thiocyanate for 10 min on ice. After an overnight dialysis in PBS containing 0.1% NP40, 0.05% Tween and 0.2% BSA, SC-K^d -15 was used in direct binding test as below. Its purity was assessed by SDS-PAGE.
K^d molecules isolated from the spleen of BALB/c mice were then purified and iodinated.

HLA-DRw13 = HLA-DRw13 (Homo sapiens, UniProt P01903+P01911); assay: Direct peptide binding assay: 125I-labeled HLA-DRw13 (positive control); settings: for binding of peptide to DRw13 positive control (in words): direct assay, printed DR213
HLA-DRw13, sequence (P01903 26-254): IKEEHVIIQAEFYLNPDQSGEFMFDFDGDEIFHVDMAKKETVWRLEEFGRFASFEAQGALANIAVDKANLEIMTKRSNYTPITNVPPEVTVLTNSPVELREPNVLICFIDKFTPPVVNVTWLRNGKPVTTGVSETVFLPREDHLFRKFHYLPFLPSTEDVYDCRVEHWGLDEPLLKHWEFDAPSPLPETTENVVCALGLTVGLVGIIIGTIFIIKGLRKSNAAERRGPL
HLA-DRw13, sequence (P01911 30-266): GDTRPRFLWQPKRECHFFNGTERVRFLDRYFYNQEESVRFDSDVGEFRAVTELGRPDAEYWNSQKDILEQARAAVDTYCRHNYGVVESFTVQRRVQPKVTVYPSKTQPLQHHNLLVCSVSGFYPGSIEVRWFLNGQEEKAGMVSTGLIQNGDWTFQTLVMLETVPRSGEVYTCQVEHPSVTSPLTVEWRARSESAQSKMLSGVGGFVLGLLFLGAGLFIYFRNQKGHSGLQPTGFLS
Experimental: Direct Peptide Binding Assay. Wells of microtiter plates are pretreated with 100 μl 2.5% glutaraldehyde in distilled water for 2 h at 20° C., washed with distilled water, and coated for 16 h at 4° C. with 100 μl of peptide diluted at 5 μg/ml either in carbonate-bicarbonate buffer, pH 9.6, or in PBS, pH 7.4 or pH 5.0. Remaining free sites are blocked by incubation for 2 h at 20° C. with BSA diluted 1% in PBS containing 0.05% Tween 20 (Tw) and 0.02% sodium azoture. […] After extensive washing, the radioactivity of each well is counted.

HLA-DR3 = HLA-DR3 (Homo sapiens, UniProt P01903+P01911); assay: Direct peptide binding assay: 125I-labeled HLA-DR3 (positive control); settings: for binding of peptide to HLA-DR3 positive control (in words): direct assay
HLA-DR3, sequence (P01903 26-254): as the sequence (P01903 26-254) above
HLA-DR3, sequence (P01911 30-266): as the sequence (P01911 30-266) above
Experimental: as §1

SC-K^d -15 [2] = target: T2, SC-K^d -15; assay: Competition experiment, env 312-327 bound to plastic, 35S-labeled SC-Kd; assay type: binding; settings: Table (B) shows it for SC-Kd and H-2K

Row | Sequence | binding of peptide to conventional K^d (in words) (H-2K) | ^35 S-labeled SC-Kd bound to coated peptide (SC-K^d -15 [1]; Table 10 (A), peptide 30 μg/ml, pH 9.6, input 10,000 cpm) | ^35 S-labeled SC-Kd bound to coated peptide (SC-K^d -15 [1]; Table (B), peptide 5 μg/ml, pH 9.6, input 6000 cpm, no coated peptide 228/223) | binding of peptide to SC-K^d -15 (in words) (SC-K^d -15 [1]) | binding of peptide to DRw13 positive control (in words) (HLA-DRw13) | binding of peptide to HLA-DR3 positive control (in words) (HLA-DR3) | ^35 S-labeled SC-Kd bound to coated peptide (SC-K^d -15 [1]; Table 10 (A), peptide 10 μg/ml, pH 5, input 10,000 cpm) | ^125 I-labeled HLA-DRw13 bound to coated peptide (HLA-DRw13; Table 10 (A), peptide 10 μg/ml, pH 5, input 200000 cpm, second value of cell, duplicates) | competition with plastic-bound env 312-327 peptide (in words) (SC-K^d -15 [2]) | ^125 I-labeled HLA-DR3 bound to coated peptide (HLA-DR3; Table 10 (A), peptide 10 μg/ml, pH 5, input 200000 cpm, first value of cell, duplicates)
1 | IRIQRGPGRAFVTIGK [env 312-327, HIV 1 Env peptide, residues 312-327] | found to bind | 750 cpm | 390 cpm | significant binding | significant binding | significant binding |  |  |  | 
2 | LFIHFRIGCRHSR [vpr 68-80] |  |  |  | significant binding | significant binding | significant binding | 710 cpm and 621 cpm | 21838 cpm and 20593 cpm | competed efficiently | 18582 cpm and 18245 cpm

Source: US6153408A, “Altered major histocompatibility complex (MHC) determinant and methods of using the determinant” (Institut Pasteur and Institut National de la Sante et de la …, priority 1995, dated 2000)
